Measured values taken from US20230295310A1 (ABCELLERA BIOLOGICS, published 2023).
Numbering of substitutions follows the chain as printed.

B1: GOMP001_bsAb_040 (bispecific antibody, human IgG1, kappa, L234A L235A)
heavy 1: EVQLVESGGGLVKTGGSHRLSCVASGFSFKKAWMNWVRKAPGKGLEWVGRIKRNSDGGTTDYAAEVKGRFILSRDDSKNTLYLQMNSLKTEDTAVYYCTTLDSSSWYVGYYYMDVWGKGTTVTVSSASTKGPSVFPLAPSSKSTSGGTAALGCLVADYFPEPVTVSWNSGALTSGVHTFPAVLQSSGLYSLSSVVTVPSSSLGTQTYICNVNHKPSNTKVDEKVEPKSCDKTHTCPPCPAPEAAGGPSVFLFPPKPKDTLMISRTPEVTCVVVDVSHEDPEVKFNWYVDGVEVHNAKTKPREEQYNSTYRVVSVLTVLHQDWLNGKEYKCKVSNKALPAPIEKTISKAKGQPREPQVYTLPPSREEMTDNQVSLTCLVKGFYPSDIAVEWESNGQPENNYKTTPPVLMSDGSFFLASKLTVDKSRWQQGNVFSCSVMHEALHNHYTQKSLSLSPG
light 1: RIQMTQSPSSVSASVGDRVTITCRASQDINNWLAWYQDKPGKAPKILIYTASNLQSGVPSRFSGSGSGTDFTLTISSLQPEDFATYFCQQAHSLPITFGQGTRLEIKRTVAAPSVFIFPPSDKQLKSGTARVVCLLNNFYPREAKVQWKVDNALQSGNSQESVTEQDSKDSTYSLSSTLTLSKADYEKHKVYACEVTHQGLSSPVTKSFNRGEC
heavy 2: QVQLVQSGAEVKKPGASVKVSCKASGYTFTSHWMHWVRYAPGQGLEWIGEFNPSNGRTNYNEKFKSKATMTVDTSTNTAYMELSSLRSEDTAVYYCASRDYDYDGRYFDYWGRGTLVTVSSASTKGPSVFPLAPSSKSTSGGTAALGCLVKDYFPEPVTVSWNSGALTSGVHTFPAVLQSSGLYSLSSVVTVPSSSLGTQTYICNVNHKPSNTKVDKKVEPKSCDKTHTCPPCPAPEAAGGPSVFLFPPKPKDTLMISRTPEVTCVVVDVSHEDPEVKFNWYVDGVEVHNAKTKPREEQYNSTYRVVSVLTVLHQDWLNGKEYKCKVSNKALPAPIEKTISKAKGQPRRPRVYTLPPSREEMTKNQVSLVCLVKGFYPSDIAVEWESNGQPENNYKTTPPVLDSDGSFFLYSVLTVDKSRWQQGNVFSCSVMHEALHNHYTQKSLSLSPG
light 2: DIQMTQSPSSLSASVGDRVTITCSASSSVTYMYWYQRKPGDAPKLLIYDTSNLASGVPSRFSGSGSGTDYTFTISSLQPEDIATYYCQQWSSHIFTFGQGTKVEIKRTVAAPSVFIFPPSDEQLKSGTASVVCLLNNFYPREAKVQWKVDNALQSGNSQESVTEQDSKDSTYSLSSTLTLSKADYEKHKVYACEVTHQGLSSPVTKSFNRGEC
B2: GOMP001_bsAb_044 (bispecific antibody, human IgG1, kappa, L234A L235A)
heavy 1: B1 heavy 1 with H18L, S55T, T60A, I71T, N79K, Y82F, W106Y
light 1: B1 light 1 with I46L, N53S, S76G, F87Y
heavy 2: B1 heavy 2
light 2: B1 light 2
B3: GOMP001_bsAb_041 (bispecific antibody, human IgG1, kappa, L234A L235A)
heavy 1: QVQLVQSGAEVKKPGASVKVSCKASGYTFTSHWMHWVRKAPGQGLEWIGEFNPSNGRTNYNEEFKSKATMTVDTSTNTAYMELSSLRSEDTAVYYCASRDYDYDGRYFDYWGQGTLVTVSSASTKGPSVFPLAPSSKSTSGGTAALGCLVADYFPEPVTVSWNSGALTSGVHTFPAVLQSSGLYSLSSVVTVPSSSLGTQTYICNVNHKPSNTKVDEKVEPKSCDKTHTCPPCPAPEAAGGPSVFLFPPKPKDTLMISRTPEVTCVVVDVSHEDPEVKFNWYVDGVEVHNAKTKPREEQYNSTYRVVSVLTVLHQDWLNGKEYKCKVSNKALPAPIEKTISKAKGQPREPQVYTLPPSREEMTDNQVSLTCLVKGFYPSDIAVEWESNGQPENNYKTTPPVLMSDGSFFLASKLTVDKSRWQQGNVFSCSVMHEALHNHYTQKSLSLSPG
light 1: B1 light 2 with D1R, R37D, D41K, E122K, S130R
heavy 2: EVQLVESGGGLVKTGGSLRLSCVASGFSFKKAWMNWVRYAPGKGLEWVGRIKRNTDGGPADYAARVKGRFTLSRDDSKKTLYLQMNSLKTEDTAVYYCTTLDSSSWYVGYYYMDVWGRGTTVTVSSASTKGPSVFPLAPSSKSTSGGTAALGCLVKDYFPEPVTVSWNSGALTSGVHTFPAVLQSSGLYSLSSVVTVPSSSLGTQTYICNVNHKPSNTKVDKKVEPKSCDKTHTCPPCPAPEAAGGPSVFLFPPKPKDTLMISRTPEVTCVVVDVSHEDPEVKFNWYVDGVEVHNAKTKPREEQYNSTYRVVSVLTVLHQDWLNGKEYKCKVSNKALPAPIEKTISKAKGQPRRPRVYTLPPSREEMTKNQVSLVCLVKGFYPSDIAVEWESNGQPENNYKTTPPVLDSDGSFFLYSVLTVDKSRWQQGNVFSCSVMHEALHNHYTQKSLSLSPG
light 2: DIQMTQSPSSVSASVGDRVIITCRASQDINNWLAWYLRRPGDAPKLLIYAASSLQSGVPSRFSGSGSGTDFTLTIGSLQPEDFATYYCQQAHSLPITFGQGTRLEIQRTVAAPSVFIFPPSDEQLKSGTASVVCLLNNFYPREAKVQWKVDNALQSGNSQESVTEQDSKDSTYSLSSTLTLSKADYEKHKVYACEVTHQGLSSPVTKSFNRGEC
B4: GOMP001_bsAb_042 (bispecific antibody, human IgG1, kappa, L234A L235A)
heavy 1: B1 heavy 1 with H18L, S55T, T59P, T60A, I71T, N79K
light 1: B3 light 2 with D1R, R38D, D42K, E123K, S131R
heavy 2: B1 heavy 2
light 2: B1 light 2
B5: GOMP001_bsAb_043 (bispecific antibody, human IgG1, kappa, L234A L235A)
heavy 1: B3 heavy 1
light 1: B1 light 2 with D1R, R37D, D41K, E122K, S130R
heavy 2: B3 heavy 2 with P59T, Y82F, W106Y
light 2: B3 light 2 with I20T, L37Q, R39K, A50T, Q107K

Target: EGFR on HeLa cells (UniProt P00533 25-1210, limits assumed)
Test: cell-based or functional assay

Binder | Max killing % | X… HeLa EC50
B1 | 89.5% | 0.0391 nM
B2 | 84.1% | 0.0201 nM
B3 | 78.6% | 0.449 nM
B4 | 84.8% | 0.0341 nM
B5 | 76.2% | 0.102 nM
